Experimental data taken from article PMC4543561.

Experiments:
purified protein [1] = substrate: C[C@H](CCC(=O)O)[C@H]1CC[C@H]2[C@@H]3CC[C@@H]4CC(=O)CC[C@]4(C)[C@H]3C[C@H](O)[C@]12C; experiment: purified protein; conditions: reduction, 10 mM MOPS pH 7.0, 37 °C
purified protein [2] = substrate: C[C@H](CCC(=O)O)[C@H]1CC[C@H]2[C@@H]3CC[C@@H]4C[C@H](O)CC[C@]4(C)[C@H]3C[C@H](O)[C@]12C; experiment: purified protein; conditions: oxidation, 10 mM MOPS pH 7.0, 37 °C

B1: Elen_1325 (Eggerthella lenta DSM 2243) (protein)
chain: MSEARHNPVLAGQTAVITGGASGIGKSIVQRFLEAGASCLAADLNEEALAALKQELAEYGDKLDVVKVDVSNRDDVEGMVDRAVQTFGQMDIIVNNAGIMDNLLPIAEMDDDVWERLMKVNLNSVMYGTRKAVRYFMERGEGGVIINTASLSGLCAGRGGCAYTASKFAVVGLTKNVAFMYADTGIRCNAICPGNTQTNIGVGMRQPSERGMAKATTGYAGATRSGTPEEISAAAAFLASDQAGFINGETLTIDGGWSAY
Km (purified protein [1]; cofactor NADH): 2630 ± 365 µM | kcat (purified protein [1]; cofactor NADH): 29.2 ± 1.1 s⁻¹

B2: Rumgna_00694 (Mediterraneibacter gnavus ATCC 29149) (protein)
chain: MNFGGFIMGRFDEKIMLVTGATSGIGRAVAIRAAKEGATVVAVGRNEERGAAVVAAMEEAGGKGEFMKCDVSNKDAVKALFAEIQEKYGKLDVAVNNAGIVGASKTVEELEDDDWFQVIDANLNSCFFCCREEVKLMQPSGGAIVNVSSVAGMRGFPSAAAYVASKHAVSGLTKAVAVDYATKGITCNAICPAGTDTPLTERSSADIKTRMAEIAAQGKDPMEWLKNSMLSGKTETLQKKNATPEEQAATILYFASDEARHITGSIVASDGGFTTY
Km (purified protein [1]; cofactor NADPH): 56.0 ± 5.6 µM | kcat (purified protein [1]; cofactor NADPH): 157 ± 4.53 s⁻¹

B3: Rumgna_02133 (Mediterraneibacter gnavus ATCC 29149) (protein)
chain: MFMMLKNKVAIVTGGTRGIGFAVVKKFIENGAAVSLWGSRQETVDQALEQLKELYPDAKISGKYPSLKDTAQVTAMINQVKEEFGAVDILVNNAGISQSTSFYNYQPEEFQKIVDLNVTAVFNCSQAAAKIMKEQGGGVILNTSSMVSIYGQPSGCGYPASKFAVNGLTKSLARELGCDNIRVNAVAPGITRTDMVAALPEAVIKPLIATIPLGRVGEPEDIANAFLFLASDMASYVTGEILSVDGAARS
Km (purified protein [2]; cofactor NADP+): 369 ± 30 µM | kcat (purified protein [2]; cofactor NADP+): 1.66 ± 0.0333 s⁻¹

B4: Elen_0198 (Eggerthella lenta DSM 2243) (protein)
chain: MYDDLKGKTVVVTGSSKGLGAAMARRFGAEGMNVVANYRSDEEGARETVRAIEEAGGAAAAVQADVSKNECVDALFDAAMFSFGGVDIWVNNAGIEVASPSDRKSIEEWQRVIDVNLTGVFAGCRRAIDHFLDRKMPGVIINLSSVHEIIPWPHFADYAASKAGVGMLTKTLALEYADRGIRVNAIAPGAMNTPINAEKFADPEARAATERLIPMGYVGAPEDVAAAAAWLASDQASYVTGTTLFVDGGMTLYPGFQFGQG
Km (purified protein [1]; cofactor NADH): 2660 ± 539 µM | kcat (purified protein [1]; cofactor NADH): 9.73 ± 0.583 s⁻¹

B5: Elen_0690 (Eggerthella lenta DSM 2243) (protein)
chain: MGIYVITGATSGIGAKTAEILRERGHEVVNIDLNGGDINANLATKEGRAGAIAELHERFPEGIDAMICNAGVSGGKVPISLIISLNYFGATEMARGVFDLLEKKGGSCVVTSSNSIAQGAARMDVAGMLNNHADEDRILELVKDVDPAIGHVYYASTKYALARWVRRMSPDWGSRGVRLNAIAPGNVRTAMTANMLPEQRAAMEAIPVPTHFGEEPLMDPVEIANAMAFIASPEASGINGVVLFVDGGTDALLNSEKVY
Km (purified protein [2]; cofactor NAD+): 1280 ± 88 µM | kcat (purified protein [2]; cofactor NAD+): 4.85 ± 0.117 s⁻¹
